According to a protein production outcome set (Wang et al. 2014):

Test: label from the status in PepcDB records
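Also: failed if final PepcDB status was selected cloned or expressed and not failed if soluble or beyond.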

| Sequence | protein production |
| --- | --- |
| MTDRSEDADGEPAPEDAAGLDDDALDHEFSEGAGFDDPYAGFDLDPPELDVDPDTVDPVDSRVVADTLDERTLDNDAVDADELIDVGLSYMGINRNEQAVDTFERAAQYTDDDNREQEAWVNKGIAHGELEEWDAAVGAHREALFVADDGDFEAAAHTNLAYALWEFGEDEQAYEHAEEAVRVDKRLPQAWYNLGFIENERDRPEQALDALDNAIRLGFQQADVYEEKTRALEALGRDEEAAKVAEQADEIRSQQERELVDER | failed |
| MEMVKSRSKVAIIGAGFVGASAAFTMALRQTANELVLIDVFKEKAIGEAMDINHGLPFMGQMSLYAGDYSDVKDCDVIVVTAGANRKPGETRLDLAKKNVMIAKEVTQNIMKYYNHGVILVVSNPVDIITYMIQKWSGLPVGKVIGSGTVLDSIRFRYLLSEKLGVDVKNVHGYIIGEHGDSQLPLWSCTHIAGKNINEYIDDPKCNFTEEDKKKIAEDVKTAGATIIKNKGATYYGIAVSINTIVETLLKNQNTIRTVGTVINGMYGIEDVAISLPSIVNSEGVQEVLQFNLTPEEEEALRFSAEQVKKVLNEVKNL | not failed |
| MNDTLTLDEVVEFAENPEPRCPCVLLLDTSGSMQGAAIEALNQGLLSLKDELMKNSIAARRVEIAIVTFDSHINVIQDFVTADQFNPPILTAQGLTSMGAGIHKALDMVQERKSLYRANGVAYYRPWVFMITDGEPQGELDHLVEQAALRLQGDEVNKRVAFFSVGVENANMTRLNQIAVRTPLKLKGLNFIEMFVWLSASMSAVSHSQIDEQVALPPIGWGSI | failed |
| MLLSMLRFEWRYYLRQPSFYVVSFLLFLMSFLSVASNNIQIGSGGEVMKNSPFSISQTLLIMGLISMFAVVNFVGSTAIRNHQHLMEELVYSKPLSPFAYQFGRFLGSFMVVLAVFAFVPIGLMLGSFMPWVDASRFGPFALSHYVIPYLQLSVPSLLLISCLFYAMASRFRSLMALYLTAVAMLVLYTLTGEMASQPQYRTIAALLDPFALRTFAEVTRYWTISEKNHQLLELSGLVLQNRALWLVIAGVLLAMSGIFSQPTLTKKRDKKSSKVEKIPDLVPLTALAMATLPNGRLQFWTRVKFEVRQVLLTAPFVVLGALTVFNLVGPMFDDFGWYGTSNWPLTQDMVDNIAGATGLLMVIVLIYYSAEIVWRERSSGMGDIVDSVPVSNLSFWASKLVAVLIVMTLLYMLAMGTTIVFQLIKGQSNLEISQYLIRLGFYYLLPLLMTSVLAFFLQVLSPNKYAGMGLFVAYYLTTFVMANWGFGHSLYNFGQSPSVSYSDMNGYGWGLLSHSLYMIYWGAFSVMLFVLGYGLYHRGPQQSLKTRLGLLGYQLGHNGKVIIAAALVIFVGSGSYLFYQTKVVNHYLTQEETTDLQADYEKTFKQYQGMPILVTTRVNANVDIFPEQRKIAAKVMFEWQNKSDKPIEKMLVQFPEHTQAETVKINIPNTHLGEFDRRYRNAWLTFSTPVQPGQLVVGNIELVRESTGVAESGFDLSVVENGTFINNFELLPLFGYQDGYELMDRHERQKRGLAEKNRANKLEDSRFYQQNFFGVDGDFIQFEATISTSMDQIALAPGYLQKQWQQDDRQYFHYLMDSPMVNFYAIISGRYQVEKIEHHGVAVEVYYHADHSWNVTRMVESVKDSIDYYTAAFGPYQHKQMRIMEFPGYRSFAQSFANTVPYSERIGFITDLRNEDNIDPVYYVTAHEVAHQWWGHQVGAADVQGSAVISESLSQYSALMVLEHKYGDKMIRKFLKYELDRYLRGRSAESIKEQPLLRSENQQYIHYQKGSVVMMAIKDVLGEAKLNANLKAFLTRYQYRNDPFPTTLDLVSYLKQGTDEVQSRFIDESFNDITLYDLRLTNAVAKTLPDGKTQLELTIYASRKVATGKGEEAEQPLDMSIDIGAFSADPDKLKDEKQILLLEKHHLVSGENKLTITLAEKPSYVGVDPFVKLIDRDARDNIFKL | failed |
| MRGWILYKETATQLKPEWYEIERLLAAAKADNIELEVYAPDEFDLTVTREDNKSILLNGQPVELPDFIIPRMGSGTTYFALAIIRHLERLGVYCLNPSKAIEIVKDKLFSQQLLAEKNLPTPKTMLVKFPVDIDLVERHLGFPVVIKTLSGSQGSGVFLSHKAREFDDLMQLIEATNKNANIILQEFIANSHGRDLRVFTIGGRVAGCYERRGQEDSFKANVSAGGSARPFDITPEIEWLATQTANILDLDVAGIDLLFDNGHYKICEANSSPGFEGLESCLNVDIAAQILHFIRIRLGMFNKDEKNSDPQLTHAGPALANNVTSSKAAE | failed |
| MSTEKIINLAAYAGKILLQSGAEIYRVEETMNKICTAFNVKEAESFVTPTGIIISITGEDEKITSTIKRIQVRTVDLRKISEVNDLSRTLQYKNFSLEEVADKLKKIDNEKKHSDLFLIFFSAVAAGFFTLIFGGTFRDFSVSFFIGIIIKIFSIIISRLEINDFFLNMVGGAIAAFIALLFKKLGVVVYLDKTIIGSIMLLVPGLAITNAVRDTIAGDLVSGVSRALDAFFTAVAIAAGTGLVFKIWINFFGGTGL | failed |
| MKFRGNFVCQPRAGPAESRPTRPFTPRPSATGSLFMSNQHFVSPDLIRQGFSRAMSDMYREEVPLYGALMELVAEVNAQVLERQPALARHLQSSGELQRLDLERHGAIRVGSAAELATLARLFAVMGMQPVGYYDLTPAGVPVHSTAFRAVHEAALQVSPFRVFTSLLRLELIDNPELRSFAEQVLARRQIFTPQVLELIQQAEAAGGLDAEDAERFIRQALETFRWHHHATVTAAQYASLSAQHRLIADVVAFKGPHINHLTPRTLDIDEVQRLMPARGITPKAVIEGPPRRECPILLRQTSFKALEESVAFTDQAQSQGSHSARFGEIEQRGAALTPKGRELYDRLLNAARDALGDFPNEANAQRYNQLMQEHFREFPDSHPAMREQGLAYFRYFVSETGLAARNQPQRPTTLAALLAAGHLSAEPLVYEDFLPVSAAGIFQSNLGDDSQSHYAGQSNRQAFEAALGRPTLDELQLYAQTQQRSLEHCAATLGLPALLEHHHHHH | failed |
| MRRSKYFTPNEVSLHNTINDIWVSYLGKVYDLTPLLEAYKGDVLLKPIIECAGKDISHWFDPKTKDILTHVDPLTGCIKYYTPRGRFIHIPPPCPRTDWANNFGKPWWKDNRYEVGLLSAKTRWIRIINTLTSQEQKLEVCSEESLDEILHRYLFYNSHAASYTWKLSGINLDMSKTLSENGIPEEDEFYCGSPDCNLFSPSICLYFNDDLTEL | failed |
| MSLRDYTRKRRFDQTPEPAEDAAATAHRQPIFVVQLHHASSRHYDFRLEADGVLKSWAVPKGPSLRAGEKRLAVQVEDHPLAYAGFEGDIPQGQYGAGHVQVFDHGTWHCDGDALAALDAGKLDFDLQGDKLRGGFALVRTRLRGRQPQWLLIKRDDAHAADLDADALVADSDATAQAIETPSAAAAPARRAKASRRRRTPAEALVTEKSASASRPRASAATQAHWRTRALALPGARDAACPTGLRAQLTLLRAEAPDGAQWPHEIKWDGYRLLTDLVDGRAQLRSRNDQAWTDSFPEVATAVQALPVRDARLDGELVVLDAQGRSDFSALQRAIDGTARQPLRYLVFDLLGVAGVDLRATPLLERKQLLRALLGETPGTLAYSAHVIGRGPEVFAASADKGWEGIVSKRADAPYRGGRSADWVKTKHEDSDEFVVVGYTDPKGARSGFGALLLAQLDGTQLRYVGRVGTGFDSALLGEITAQLQALHSPQPTLELPAHIPSRPRDVHWVRPVLIAEVAFRGWAKQGLLRQAAFKRLREDKPMSDLGGDRATPGKSRGARTRTAAAAAGKASRAAATRTAAVSAGGSAAKPGKAGKSSTAADVSTPSRVAKQRVTPAASSAAKPGKPGKSSAAATGTASPRAAKRGAVSTASASSTPKSGKRSVSSGSAASGKPAAPSKAASSKTARTPATSSARKTSTATAASSIRKARASASNAPDGVAITHPERVVFPAAGISKGDVAAYYRAVAPLVLPEIARRPLSLLRCPDGAAGACFFQKHEGRHLGAHIKAIPLKQKSGTEDYLYIEDVAGLLELVQMNTLELHPWGARVDDPEHPDRLVFDLDPGEGVAWTQVVAAAREIRSKLRAAGLESAVRLSGGKGLHVVVPIVPQASWDQARDFCEAFAQALATQAPERYVATMSKAKRHGVIFVDWLRNGRGNTSVCSWSLRAREHATVAVPLRWEELGKLSGPDAFPLDKAVQRAKRQRNDPWADVLALKQVLPG | failed |
| MSLRSHFATQKDQWQTYTKEKKIKIGFDATFVPMGYEEKDGSYIGFDIDLANAVFKLYGIDVEWQAIDWDMKETELKNGTIDLIWNGYSVTDERKQSADFTEPYMVNEQVLVTKKSSGIDSVAGMAGKTLGAQAGSSGYDAFNASPKILKDVVANQKVVQYSTFTQALIDLNSGRIDGLLIDRVYANYYLEKSGVLDQYNVMPAGYEGESFAVGARKVDKTLIKKINQGFETLYKNGEFQKISNKWFGEDVATDQVKGKREGHHHHHH | not failed |
| MIEENLVEFIEILMLATAVAVTVKFIRLPYTIALVLAGLFVGLAGLLPEVPLSREIVFFIFLPPLLFEAAMNMDLKELRENFGPIALIAFLGVVVTTTVVGFSLNWILGIPLALALIFGAMVSATDPVSVLATFKSISAPKKLSILIEGESVLNDGAAIVVFAIALEMMLKGVFDPLNAALDFAVVCVGGAAVGLAVGYLAYRILAKIDDALVEIAVTIVAAYLGFVLAERFHFSGVIAVVAAGLILGNYGRDFSMSPTTRVIMLDFWSVIVFLVNSIIFILIGVNTHITIFSAWKEILVAIAAVILARAFVVYPVMTYYRFPNLWKHVVFWGGLRGVIPVALALSFGNQLLSAMAFGVVLFSLLLQGISLEIFVKRKFVSESERELEEIIARYIAARSAKFELMKAVEQGRIVEPVAREMLPNLDAEIEELRSKLEEKIRGGMGSKLRKAAVKYVIDAKKSAVVDAMAGGLVSQEVALEIMRELDSKTAELME | failed |
| MTNWTEIDEIAKKWIREAGARITQSMHESLTIETKSNPNDLVTNIDKETEKFFIDRIQETFPGHRILGEEGQGDKIHSLEGVVWIIDPIDGTMNFVHQQRNFAISIGIFENGEGKIGLIYDVVHDELYHAFSGRGAYMNETKLAPLKETVIEEAILAINATWVTENRRIDQSVLAPLVKRVRGTRSYGSAALELANVAAGRIDAYITMRLAPWDYAAGCVLLNEVGGTYTTIEGEPFTFLENHSVLAGNPSIHKTIFEEYLHARK | failed |
| MTEAMIRKKPGMASVKDMPLLQDGPPPGGFAPVRYARRISNTGPSAMAIFLTVSGAFAWGMYQVGQGNKIRRALKEEKYAARRAILPILQAEEDERFVSEWKKYLEYEADVMKDVPGWKVGENVYNSGRWMPPATGELRPDVW | failed |
| MLDPHSRMPLYHQIESHLREVIRSGKWQAGEAIPPERLLIEQYGVSRITIRQALANLVAAGLLYRKHGRGTFVAGAKERPITESLANLTGHLEELQLRGLDPRVRVLALETRPMIAEVAEALQRSPGAEGWYLYRIVTVEQQPLMLSTVWLPCDLGVELNEELLKQHGMALLLTHNGIAPLRGSQRIGAMSAGPEEARLLGVRAGEAVLRVSRVIHGAADRPLVWFRTLYRSDRYEYEVELKRGRPHA | failed |
| MPLCLKINKKHGEQTRRILIENNLLNKDYKITSEGNYLYLPIKDVDEDILKSILNIEFELVDKELEEKKIIKKPSFREIISKKYRKEIDEGLISLSYDVVGDLVILQISDEVDEKIRKEIGELAYKLIPCKGVFRRKSEVKGEFRVRELEHLAGENRTLTIHKENGYRLWVDIAKVYFSPRLGGERARIMKKVSLNDVVVDMFAGVGPFSIACKNAKKIYAIDINPHAIELLKKNIKLNKLEHKIIPILSDVREVDVKGNRVIMNLPKFAHKFIDKALDIVEEGGVIHYYTIGKDFDKAIKLFEKKCDCEVLEKRIVKSYAPREYILALDFKINKK | not failed |
| MFQENRTNELVILKEIAETLNTSNDTYHVLQAVLEKLLSVTGLTTGWIFLADEDGRYTKLIDYQLPEALTYENKRPMCEGECWCLRGFVDGKLERAVNIIECKRINNAIEYNWGDTEGILHHATVPLKAGGEKFGLLNVASPGKTHFSEEELVLLQSVAFQIGTALKRAKLYENEKRRAH | failed |
| MEIFLWKDNRFHHQLRLLWHMCRGRNGTACLLLMKHFAAVRYLKLCTNHLWEVAGNMMNSNMNRRNVQYRQDRQPMPQPAVQPQCQPSCQTCPGTCNDGSMMTGNNGNPQMMPAGGPGPERRPMPVPDHQTLMNEIYQLGFAIVETVLYLDTHPSDADALNYYNQIKRRYSHVMEMYSREYGPLLNTNVMNDNYWSWVATPMPWEVEGC | failed |
